Ends that are not written are not given here.
Target: T1, HLA-DR1 (Homo sapiens, UniProt P01903+P01911, A100R/D57E/F55L/F60I/F76Y/I96L/L162R/M171V/P40L/Q125E/R42F/V115G/Y59C)
T1 construct: made in house; host or cells: Sf9 insect cells
Assay: Competition of synthetic peptides against 125I-labeled HA 307-319 for binding to empty HLA-DR1 (Ki)

Row | Sequence | relative binding affinity to DR1 among competitor peptides (competition against HA peptide, empty DR1, first approximation) | Ki (read-out: Ki vs HA 307-319, concentration inhibiting 50% of 125I-labeled HA 307-319 binding, 10 nM labeled peptide, 10 nM empty HLA-DR1 from Sf9 insect cells, pH 7.2, 37° C., 85 hours) [nM]
1 | KMRMATPLLMQALP (MRMATPLLMQALPM) [Ii 107-120, invariant chain peptide named in b65] | highest affinity of all the competitor peptides measured | –
2 | KMRMATPLLMQALPM [Ii 106-120] | – | < 10

Source: patent publication US6509033B1, “Immunomodulatory peptides” (President and Fellows of Harvard College, priority 1992, dated 2003)
